Results published in the supplement of paper PMC12042874.
± gives the uncertainty stated by the source.

Experiment: amyloid nucleation score (Sup35N fusion, yeast selection) (log enrichment); library NNK1; higher = more nucleation; inactive = no reads after selection
Summary of the method: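 DiMSum was used to calculate nucleation scores as log enrichment of output over input reads, centred on the mode score of non-aggregating sequences. Sequences with fewer than 100 input reads were not scored. Input and output came from Illumina sequencing of plasmid inserts in psi-negative yeast expressing peptides of 20 random codons fused to Sup35N, induced 24 hours with 100 μM copper sulfate and then grown 7 days at 30°C on medium lacking adenine and uracil.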

Substance	amyloid nucleation score
RRTTSMERYCR	0.291 ± 0.43
LKRDSFWVLIKWTRLDMGVS	0.056 ± 0.37
GQLSCLSFNVVTGRYKAIAF	0.629 ± 0.38
SKSCFFKQYLTSIIYLHTKK	0.418 ± 0.32
TNSFYYGSVSTCYSRCNCKF	7.362 ± 0.048
FSNAIKQVFQGYLWTNPW	-0.188 ± 0.3
VMRNYFRDPDRPRLKWIYLS	7.095 ± 0.048
CLAGGYSGNAEGMIIETRAK	-0.171 ± 1.7
YLRKIRVLNMGAAAEKALLG	0.641 ± 0.68
VNAIRSHAVWNGGQGPRFHS	-0.098 ± 0.42
PQRQFDLIVD	0.563 ± 0.81
ESMDGFARR	0.654 ± 0.67
CYVLRSRSCLVFLMVYRGRV	4.95 ± 0.073
TDCHALRMWIFAGFWWHNFS	-1.04 ± 0.84
VRPNGVYSFRWTYGFPIQRA	0.321 ± 0.6
KEFMRWHQTPRFVKKTHVRG	-0.834 ± 1.4
WGKLTKQERGWDNDKVNQEC	0.094 ± 0.4
TRCCGFKRGGFVSYWMGSRP	1.01 ± 0.51
RLSHKNGVCTLAFIYVPDNA	inactive
SGSMVRDRW	1.83 ± 0.27
NDVRYLLDMDLLASSADYFM	-0.732 ± 1.1
RMVIMLMGTHDRPFWGITGS	0.925 ± 0.63
YQTGYGGCGYCRLVRGCVKV	-0.442 ± 0.33
RDASRVVCMRPRWGPFQVVV	0.222 ± 0.69
CRIIPLYRKFLKHLTCHYIQ	-0.092 ± 0.25

Substance	amyloid nucleation score
FTVSLTSLYYISITGLLARR	-0.115 ± 0.52
YKVNNFKTFSLWNMFLDSNC	4.47 ± 0.064
SGSQY	-1.26 ± 1.7
KMFTGNSEFFCFLTTVKLDR	-0.068 ± 0.61
DPICFYYYFLVN	-2.01 ± 1.5
NPSIPCPQAACNMWY	0.819 ± 0.36
SFLCAFICHYTDVFVHLARS	1.49 ± 0.54
ASAFFRVWSLNKIICYEVSD	4.56 ± 0.051
GRILYEAYTPVERVYAWCSA	inactive
QLVGFVVPRRSSPGVHTGEC	1.21 ± 0.53
LFVNM	inactive
YVTDVDF	inactive
LYVLYAIRFLSFCSFWRYLI	-1.15 ± 0.51
DRAGERMGIR	0.13 ± 0.28
FLKLPFTKSSWSF	-0.317 ± 1.4
PIHDLRKLIYVTPEFYWGFY	0.561 ± 0.48
NSAVYSCL	inactive
LFHRIV	-0.353 ± 0.54
SMLMFIQIV	1.96 ± 0.1
VWRTYVGPVCSMLAG	0.641 ± 0.32
TTGSGSRSNWWYGSPNYYLS	-0.867 ± 0.53
SGKNRYIVSSCSWLWAREDL	0.424 ± 1
FCSLGKFGSRKCF	1.07 ± 0.61
KFSNWTDV	-0.164 ± 1.1
PKFAHILTHGVSHMQWTVVK	0.06 ± 0.35

Substance	amyloid nucleation score
LSRFEQGHELLHKSVIYCEV	-0.304 ± 0.32
SLWRDKDISWGGKSYVHVPS	1.14 ± 0.75
NADCVTMVYSKLVWLPVEDT	0.458 ± 0.57
MIVRSVILNDCWAGGACLHF	6.936 ± 0.047
DWFLTLAKVYSLNGQVFRMR	inactive
GTVSGYYVRVGNFAMYYQAY	1.91 ± 0.17
FNLGSGDWL	-0.842 ± 0.65
CEMKASGLKYVHRFNSIPVM	0.984 ± 0.57
FWELECADIAVKSKGGCQGC	-0.402 ± 0.44
LITNP	2.86 ± 0.12
THYIFLVYLWVYPGTDGWQR	inactive
WRICLQCRAYPLRTTGGQRQ	0.444 ± 0.69
FIVHANWQSFYFLLRLMVF	-0.109 ± 1
SFIMSNS	0.075 ± 0.41
TSHSCHIVGAFMKKCWFSST	-0.057 ± 0.65
PRLMLYCSLYDIESFIIGRC	inactive
YIVPQLT	1.47 ± 0.81
VRYFCTFLWWSTIRQAQYNI	0.218 ± 0.78
CLCDAISYSGIIKDVDKVCE	0.875 ± 0.93
SESSYGSSSRTTESSVCVSG	-0.008 ± 0.52
YREEEILRVVNLTIFAGPGM	-0.55 ± 0.39
VPYVRMNVR	2.24 ± 0.14
YNCFMFAMFARSDSYMGIAS	0.597 ± 0.26
FRIRRGKRSVHTVNFAFAEV	0.583 ± 0.8
LYDRCYGIRSSAIEGEEYKR	0.806 ± 0.97

Substance	amyloid nucleation score
NYSYSFIPRSKVNGYEYGGA	-0.387 ± 0.32
HSGTVVYNMEMKKINSCYLL	2.58 ± 0.1
YPLFCNDHVGSSTLRRR	-0.065 ± 0.35
CLNTMWRKPVEAREM	0.189 ± 1
DMVEMVHCSCF	1.49 ± 0.21
SMSHGWGLLDFLWADCWWPK	-0.031 ± 1
VKFDLMAI	-0.777 ± 1.7
VAADMEARYIFCYIINVDAR	4.98 ± 0.083
NILKNTLAFSVYLISLPLHV	1.82 ± 0.1
DHGHCISPNTSYFMVDWFLK	0.473 ± 0.39
KVVSGA	0.879 ± 0.53
MMFLTNCCFMVLNCYTCVRY	3.53 ± 0.066
WYGDSPECEV	0.141 ± 0.73
FGFMKKRRDLSY	2.96 ± 0.091
SIGVGCGEVCFLYRSEPIFV	-0.04 ± 0.31
FLSSCDGGLIGMHGTGFTAQ	0.426 ± 0.45
NFAYGVNYLSAVKGCFTFAR	-0.206 ± 1.5
LRDNMLSEGMQLYCMARASA	-0.201 ± 0.72
YCTCRLVKFEVDW	inactive
HRRRYAVNFSVEIMIRALG	-1 ± 1.6
TAAGSNQSEAFFFTNIISE	0.078 ± 0.84
NMTVITVVSWLCFVRRTHNA	-1.06 ± 0.82
SIPNSAQHFTSPPARFHSTG	0.042 ± 0.69
LRLTALGSSRPIKFEGNVGY	-0.532 ± 0.68
VVDVSYRNLRRCM	0.8 ± 0.36

Substance	amyloid nucleation score
VNAPST	0.413 ± 1.1
AFRVS	-0.513 ± 0.63
LMKGTYFIMCNLLAYECLTR	2.78 ± 0.14
SYNWMVVFVYECI	0.931 ± 0.57
QWSDS	-0.267 ± 0.41
YVGQGPGSLLTTGWVRYSL	-0.137 ± 0.6
TRNLMPSRSFG	2.08 ± 0.28
GVSQNKCMPVWCVR	0.504 ± 0.38
RLSSRVIRKNFDYQTFCHED	0.414 ± 0.34
RNNCEMCLGFLS	0.827 ± 0.37
FIQNKVLVFQSNSTNDLLFP	6.071 ± 0.058
IFGGLH	0.631 ± 0.5
NLKCF	0.905 ± 0.47
EAARMWSFNGNLSVFWIT	5.72 ± 0.097
YNLRMDGVCGTVLRYVVEGR	-0.403 ± 1.4
MCSKWDFQVLSHTDSWVWV	-0.67 ± 0.5
RLSSPVSI	0.028 ± 0.68
FWSYLSGLVGMYGQIVIKKA	0.059 ± 0.79
EKWKKAAIWFFLSYWLAVWR	-0.301 ± 1.2
FMSYFVPSQQYLTASSRQKT	-0.544 ± 1.1
YIDVFVSRVLHSGFERSDVV	0.745 ± 0.2
CSCACCVELHQL	6.611 ± 0.062
KNFHELTVDYVCVLYREQLF	0.115 ± 0.26
QWKGSFSSV	-0.873 ± 1.1
YRCNT	-0.244 ± 0.32

Substance	amyloid nucleation score
APVVGTNSTTGEYSLTPSSW	0.741 ± 0.41
YKHWLYKLSCLEARSEYCGF	0.444 ± 1.1
IRYYVVSSVVDSNS	-0.142 ± 0.31
TCRKTTMQRRSTHNLVKCDE	-1.47 ± 2.7
SPWSSNRYVLNSFYLSHPRR	-0.308 ± 0.32
SKRCWGDGMDTFSAIVEAIW	-0.128 ± 0.54
LGRGTKMLLKVYTVRTSNYR	0.592 ± 0.58
VFSDQQDHQHGWTYETSLSA	0.619 ± 0.7
KRHVSGKVQMGWGVRRRPV	0.178 ± 0.72
ILGLSRGQ	0.015 ± 0.37
AFTFGYTFQFYLLASTYMIR	inactive
WFSTDGWKNMSDSLASWSCY	0.863 ± 0.42
GSKSFPSSGSSMQAAGTSSG	-0.069 ± 0.36
LLAIHAYREVLTGPGCGYLT	1.15 ± 0.66
WTSIV	1.38 ± 0.47
HSGFNVAAYFTSMN	0.467 ± 0.9
VPNFDQSNGQCIGDTVLMWC	1.74 ± 0.49
YNHIEFGWCLLVGFVMRKSR	3.53 ± 0.12
YNGGLRVMICLPECLLFSLI	-0.246 ± 0.49
AVQKVRCRWN	-0.009 ± 0.23
LCDYKRPCMTMYNHHELLII	0.005 ± 0.47
DIVRWLCPHRTK	1.23 ± 0.93
VVLNCYIYVIPA	3.39 ± 0.13
GCMAPNCCGWEGVDEMSWVR	-0.013 ± 0.84
LMSLRDQRVLALN	-0.533 ± 0.44

Substance	amyloid nucleation score
MFEFKKPD	-0.015 ± 0.73
LASTVSDWN	0.32 ± 0.39
LDCELLQRNFSNTKGHPIYR	0.052 ± 0.35
SCLCFLNPTNFEKLLISFVP	0.725 ± 0.53
TTFTRVTLICSPPVQAKLGR	0.399 ± 0.27
NALILRGLVCLSWKLELTHF	-0.866 ± 1.9
AMFNIW	-0.328 ± 0.47
TYIYSTILEVFYLSLGHVII	0.775 ± 0.35
AFMYYMKPSMPIYELRILEG	inactive
SVRVPWLASFCSKFMSGAYI	0.058 ± 0.41
CNSRNITT	-0.345 ± 0.67
GVVFPWSVLMFSCSSCLAVP	0.605 ± 0.61
YFGYRCDYRCNPPLAPLCAN	0.515 ± 0.43
MLYFRVGVSFGLFVDNFVGF	2.12 ± 0.13
LRFVVFASTIGRGIGST	-0.892 ± 0.48
SQHDRKYHYTIGYAQELDGL	-0.235 ± 0.43
LVSCDIVWWTAMFGLLARMF	0.591 ± 0.37
TYCMYDYRKAVGEGWQFR	0.124 ± 0.38
FNLALDRGR	-0.062 ± 0.32
HTHESNRPHYYCGADCLPKD	2.71 ± 0.14
RIYRFLKLLIRGGVISVARY	-0.758 ± 1.9
RFGGD	-0.388 ± 0.57
GISLSLVVERSGK	1.49 ± 0.21
